According to patent US20250154253A1 (ROCKEFELLER UNIVERSITY, published 2025):
Blank lines part the entries; values can stand above or below the binder they belong to.

What was measured:
[1] = target: T1, FcγRIIb (human, UniProt P31994); assay: no assay stated; drawn summary table of graded binding (- to ++++), for which the text cites Weitzenfeld et al. 2019
T1 construct: also called human FcγRIIb; hFcγRIIB
T1 sequence (receptor, looked up): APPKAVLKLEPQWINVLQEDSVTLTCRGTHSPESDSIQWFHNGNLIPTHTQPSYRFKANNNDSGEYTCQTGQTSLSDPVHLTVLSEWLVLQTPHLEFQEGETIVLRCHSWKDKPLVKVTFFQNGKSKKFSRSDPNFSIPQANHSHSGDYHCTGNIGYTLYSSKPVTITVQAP

[2] = target: T2, FcγRI (human, UniProt P12314); assay: as above
T2 construct: also called human FcγRI; hFcγRI

[3] = target: T3, FcγRIIb (mouse, UniProt P08101); assay: no assay stated; drawn summary table of graded binding (- to ++++), for which the text cites Nimmerjahn et al. 2005
T3 construct: also called mouse FcγRIIb; mFcγRIIB
T3 sequence (receptor, looked up): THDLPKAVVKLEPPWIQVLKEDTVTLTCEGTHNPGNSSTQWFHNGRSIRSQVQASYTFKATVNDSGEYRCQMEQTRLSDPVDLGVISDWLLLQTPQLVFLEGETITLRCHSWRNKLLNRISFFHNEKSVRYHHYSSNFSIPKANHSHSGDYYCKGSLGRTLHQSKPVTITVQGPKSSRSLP

[4] = target: T4, FcγRIV; assay: as above
T4 construct: also called mouse FcγRIV; mFcγRIV
T4 chain: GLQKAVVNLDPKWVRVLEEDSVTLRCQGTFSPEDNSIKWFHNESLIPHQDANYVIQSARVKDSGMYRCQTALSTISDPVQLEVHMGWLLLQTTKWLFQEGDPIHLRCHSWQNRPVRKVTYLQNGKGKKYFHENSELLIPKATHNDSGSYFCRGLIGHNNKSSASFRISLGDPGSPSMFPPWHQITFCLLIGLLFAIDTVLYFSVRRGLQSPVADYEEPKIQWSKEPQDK

[5] = target: T5, FcγRIII (mouse, UniProt P08508); assay: as above
T5 construct: also called mouse FcγRIII; mFcγRIII
T5 sequence (receptor, looked up): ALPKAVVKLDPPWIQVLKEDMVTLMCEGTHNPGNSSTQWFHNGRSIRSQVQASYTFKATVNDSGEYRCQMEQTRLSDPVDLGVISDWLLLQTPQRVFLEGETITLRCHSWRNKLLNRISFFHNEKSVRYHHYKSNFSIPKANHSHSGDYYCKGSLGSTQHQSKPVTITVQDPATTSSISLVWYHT

[6] = target: T6, FcγRI (mouse, UniProt P26151); assay: as above
T6 construct: also called mouse FcγRI; mFcγRI
T6 sequence (receptor, looked up): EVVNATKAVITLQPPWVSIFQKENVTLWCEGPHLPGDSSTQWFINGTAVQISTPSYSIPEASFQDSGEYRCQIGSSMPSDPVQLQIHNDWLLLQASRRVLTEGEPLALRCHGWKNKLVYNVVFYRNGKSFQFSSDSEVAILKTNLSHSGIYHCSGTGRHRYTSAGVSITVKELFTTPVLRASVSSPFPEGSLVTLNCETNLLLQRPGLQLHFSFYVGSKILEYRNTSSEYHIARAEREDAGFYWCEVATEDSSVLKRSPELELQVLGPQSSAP

[7] = target: T7, recombinant human SIRPα-hFc (SinoBiological 11612-H02H1) (human, UniProt P78324 31-370); assay: flow cytometry: recombinant hSIRPα incubated with RBCs of WT mice
T7 construct: Bought fusion protein; also called hSIRPα; recombinant hSIRPα; not shown: human Fc (hFc)

[8] = target: T8, recombinant mouse CD47 (SinoBiological 57231-MNAH) (mouse, UniProt Q61735 19-140, limits assumed); assay: ELISA on plate-coated recombinant mouse CD47 (1 ug/mL), HRP-conjugated anti-IgG, absorbance 450 nm
T8 construct: Bought protein coated on ELISA plates at 1 ug/mL; also called mCD47
T8 sequence (looked up): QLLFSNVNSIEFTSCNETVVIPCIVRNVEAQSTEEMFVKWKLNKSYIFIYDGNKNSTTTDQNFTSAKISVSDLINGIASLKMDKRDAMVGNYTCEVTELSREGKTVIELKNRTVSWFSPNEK

T7 sequence (P78324 31-370 limits assumed): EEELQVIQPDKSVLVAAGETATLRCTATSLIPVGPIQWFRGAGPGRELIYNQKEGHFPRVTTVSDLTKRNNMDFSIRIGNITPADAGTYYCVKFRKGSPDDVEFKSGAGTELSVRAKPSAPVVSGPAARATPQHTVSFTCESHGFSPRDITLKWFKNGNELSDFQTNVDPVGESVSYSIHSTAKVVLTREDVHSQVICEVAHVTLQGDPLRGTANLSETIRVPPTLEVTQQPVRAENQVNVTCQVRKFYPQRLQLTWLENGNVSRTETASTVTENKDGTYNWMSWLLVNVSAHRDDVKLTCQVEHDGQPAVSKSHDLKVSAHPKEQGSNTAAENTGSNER
T2 sequence (P12314 16-288 limits assumed): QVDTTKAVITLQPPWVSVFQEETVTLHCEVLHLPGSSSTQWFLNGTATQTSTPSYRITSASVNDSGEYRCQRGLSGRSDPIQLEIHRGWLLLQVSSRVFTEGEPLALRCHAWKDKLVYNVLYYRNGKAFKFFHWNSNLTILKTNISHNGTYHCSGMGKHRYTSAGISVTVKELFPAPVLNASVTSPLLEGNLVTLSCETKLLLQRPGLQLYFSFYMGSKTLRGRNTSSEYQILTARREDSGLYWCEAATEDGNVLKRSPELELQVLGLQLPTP

- binding result [1]: binds
- binding result [2]: binds
B1: 5F9-GAALIE (antibody, human IgG1)
heavy chain: QVQLVQSGAEVKKPGASVKVSCKASGYTFTNYNMHWVRQAPGQRLEWMGTIYPGNDDTSYNQKFKDRVTITADTSASTAYMELSSLRSEDTAVYYCARGGYRAMDYWGQGTLVTVSSASTKGPSVFPLAPSSKSTSGGTAALGCLVKDYFPEPVTVSWNSGALTSGVHTFPAVLQSSGLYSLSSVVTVPSSSLGTQTYICNVNHKPSNTKVDKRVEPKSCDKTHTCPPCPAPELLAGPSVFLFPPKPKDTLMISRTPEVTCVVVDVSHEDPEVKFNWYVDGVEVHNAKTKPREEQYNSTYRVVSVLTVLHQDWLNGKEYKCKVSNKALPLPEEKTISKAKGQPREPQVYTLPPSREEMTKNQVSLTCLVKGFYPSDIAVEWESNGQPENNYKTTPPVLDSDGSFFLYSKLTVDKSRWQQGNVFSCSVMHEALHNHYTQKSLSLSPGK
light chain: DIVMTQSPLSLPVTPGEPASISCRSSQSIVYSNGNTYLGWYLQKPGQSPQLLIYKVSNRFSGVPDRFSGSGSGTDFTLKISRVEAEDVGVYYCFQGSHVPYTFGQGTKLEIKVDAPSVFIFPPSDEQLKSGTASVVCLLNNFYPREAKVQWKVDNALQSGNSQESVTEQDSKDSTYSLSSTLTLSKADYEKHKVYACEVTHQGLSSPVTKSFNRGEC
notes: also called 5F9-hIgG1-GAALIE; GAALIE 5F9 ab

- binding result [3]: no binding
- binding result [4]: no binding
- binding result [5]: no binding
- binding result [6]: no binding
B2: IgG1 D265A (antibody)
heavy chain constant region: TKGPSVYPLAPGSAAQTNSMVTLGCLVKGYFPEPVTVTWNSGSLSSGVHTFPAVLQSDLYTLSSSVTVPSSTWPSQTVTCNVAHPASSTKVDKKIVPRDCGCKPCICTVPEVSSVFIFPPKPKDVLTITLTPKVTCVVVAISKDDPEVQFSWFVDDVEVHTAQTKPREEQINSTFRSVSELPIMHQDWLNGKEFKCRVNSAAFPAPIEKTISKTKGRPKAPQVYTIPPPKEQMAKDKVSLTCMITNFFPEDITVEWQWNGQPAENYKNTQPIMDTDGSYFVYSKLNVQKSNWEAGNTFTCSVLHEGLHNHHTEKSLSHSPGK
notes: also called mIgG1-D265A; mouse IgG1 D265A (Fc format)

- binding result [7]: no binding
B3: mouse CD47 on RBCs of WT (C57BL/6J) mice (receptor, UniProt Q61735 19-303, looked up)
chain: QLLFSNVNSIEFTSCNETVVIPCIVRNVEAQSTEEMFVKWKLNKSYIFIYDGNKNSTTTDQNFTSAKISVSDLINGIASLKMDKRDAMVGNYTCEVTELSREGKTVIELKNRTVSWFSPNEKILIVIFPILAILLFWGKFGILTLKYKSSHTNKRIILLLVAGLVLTVIVVVGAILLIPGEKPVKNASGLGLIVISTGILILLQYNVFMTAFGMTSFTIAILITQVLGYVLALVGLCLCIMACEPVHGPLLISGLGIIALAELLGLVYMKFVASNQRTIQPPRNR
notes: whole, on cells; The legend names the cells (RBCs from WT mice); also called mCD47 on WT RBCs

- binding result [8]: binds
B4: MIAP301-mIgG1-D265A (antibody)
heavy: QVKLLQSGAALVKPGASVKMSCQASGYSFTDYWVTWVKQSHGQSLEWIGEIYPSNTVTNFNDNFKGKATLTVDKSTSTAYMELSRLTSEDSAIYYCTRLGNSGYRVGWFLYWGQGTLVTVISASTKGPSVYPLAPGSAAQTNSMVTLGCLVKGYFPEPVTVTWNSGSLSSGVHTFPAVLQSDLYTLSSSVTVPSSTWPSQTVTCNVAHPASSTKVDKKIVPRDCGCKPCICTVPEVSSVFIFPPKPKDVLTITLTPKVTCVVVAISKDDPEVQFSWFVDDVEVHTAQTKPREEQINSTFRSVSELPIMHQDWLNGKEFKCRVNSAAFPAPIEKTISKTKGRPKAPQVYTIPPPKEQMAKDKVSLTCMITNFFPEDITVEWQWNGQPAENYKNTQPIMDTDGSYFVYSKLNVQKSNWEAGNTFTCSVLHEGLHNHHTEKSLSHSPGK
VL: SDTVLTQSPALAVSPGERVTISCKASESVSSHMHWYQQKPGQQPKLLIYKASNLASGVPARFSGSGSGTDFTLTIDPVEADDTATYFCQQGWNGPFTFGAGTRLELKRAVD
notes: Heavy chain assembled from the VH entry and the constant region entry named for the Fc format; also called mIgG1-D265A Fc variant of MIAP301

- binding result [8]: binds
B5: MIAP301-mIgG1 (antibody)
heavy: QVKLLQSGAALVKPGASVKMSCQASGYSFTDYWVTWVKQSHGQSLEWIGEIYPSNTVTNFNDNFKGKATLTVDKSTSTAYMELSRLTSEDSAIYYCTRLGNSGYRVGWFLYWGQGTLVTVISAS
VL: SDTVLTQSPALAVSPGERVTISCKASESVSSHMHWYQQKPGQQPKLLIYKASNLASGVPARFSGSGSGTDFTLTIDPVEADDTATYFCQQGWNGPFTFGAGTRLELKRAVD
notes: also called mIgG1 Fc variant of MIAP301; not shown: mouse IgG1 heavy chain constant region, wild type

- binding result [8]: binds
B6: MIAP301-mIgG2a (antibody)
heavy: QVKLLQSGAALVKPGASVKMSCQASGYSFTDYWVTWVKQSHGQSLEWIGEIYPSNTVTNFNDNFKGKATLTVDKSTSTAYMELSRLTSEDSAIYYCTRLGNSGYRVGWFLYWGQGTLVTVISASTTAPSVYPLAPVCGGTTGSSVTLGCLVKGYFPEPVTLTWNSGSLSSGVHTFPALLQSGLYTLSSSVTVTSNTWPSQTITCNVAHPASSTKVDKKIEPRVPITQNPCPPLKECPPCAAPDLLGGPSVFIFPPKIKDVLMISLSPMVTCVVVDVSEDDPDVQISWFVNNVEVHTAQTQTHREDYNSTLRVVSALPIQHQDWMSGKEFKCKVNNRALPSPIEKTISKPRGPVRAPQVYVLPPPAEEMTKKEFSLTCMITGFLPAEIAVDWTSNGRTEQNYKNTATVLDSDGSYFMYSKLRVQKSTWERGSLFACSVVHEGLHNHLTTKTISRSLGK
VL: SDTVLTQSPALAVSPGERVTISCKASESVSSHMHWYQQKPGQQPKLLIYKASNLASGVPARFSGSGSGTDFTLTIDPVEADDTATYFCQQGWNGPFTFGAGTRLELKRAVD
notes: Heavy chain assembled from the VH entry and the constant region entry named for the Fc format; also called mIgG2a Fc variant of MIAP301; anti-mCD47 ab clone MIAP301 (mIgG2a Fc)

- binding result [3]: binds
- binding result [5]: binds
- binding result [6]: binds
B7: IgG2a (antibody)
heavy chain constant region: TTAPSVYPLAPVCGGTTGSSVTLGCLVKGYFPEPVTLTWNSGSLSSGVHTFPALLQSGLYTLSSSVTVTSNTWPSQTITCNVAHPASSTKVDKKIEPRVPITQNPCPPLKECPPCAAPDLLGGPSVFIFPPKIKDVLMISLSPMVTCVVVDVSEDDPDVQISWFVNNVEVHTAQTQTHREDYNSTLRVVSALPIQHQDWMSGKEFKCKVNNRALPSPIEKTISKPRGPVRAPQVYVLPPPAEEMTKKEFSLTCMITGFLPAEIAVDWTSNGRTEQNYKNTATVLDSDGSYFMYSKLRVQKSTWERGSLFACSVVHEGLHNHLTTKTISRSLGK
notes: The variable region is not specified there; also called mIgG2a; mouse IgG2a subclass (Fc format)
